This test concerns the target Recombinant human PCSK9 (proprotein convertase subtilisin/kexin type 9) (human) (UniProt Q8NBP7).
UniProt Q8NBP7, sequence (Q8NBP7 31-692): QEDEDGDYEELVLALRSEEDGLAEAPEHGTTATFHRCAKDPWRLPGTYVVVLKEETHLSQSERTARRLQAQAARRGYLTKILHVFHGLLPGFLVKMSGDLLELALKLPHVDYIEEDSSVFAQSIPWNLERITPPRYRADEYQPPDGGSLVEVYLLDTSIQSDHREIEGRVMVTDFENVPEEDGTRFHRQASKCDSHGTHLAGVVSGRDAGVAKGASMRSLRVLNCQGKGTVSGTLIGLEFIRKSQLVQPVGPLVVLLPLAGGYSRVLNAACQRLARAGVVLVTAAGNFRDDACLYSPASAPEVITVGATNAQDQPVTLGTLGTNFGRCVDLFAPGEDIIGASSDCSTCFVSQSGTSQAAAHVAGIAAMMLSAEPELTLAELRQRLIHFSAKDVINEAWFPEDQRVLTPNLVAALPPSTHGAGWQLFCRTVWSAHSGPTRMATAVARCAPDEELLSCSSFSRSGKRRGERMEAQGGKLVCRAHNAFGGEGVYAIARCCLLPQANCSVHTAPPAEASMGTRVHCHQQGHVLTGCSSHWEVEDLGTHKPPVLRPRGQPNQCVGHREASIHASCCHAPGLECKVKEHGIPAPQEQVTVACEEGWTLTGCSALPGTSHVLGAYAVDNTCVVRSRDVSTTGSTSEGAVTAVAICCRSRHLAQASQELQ

Take LDL (low density lipoprotein particle): the internalisation of PCSK9-488/J16 complexes in APLP2 siRNA treated HepG2 cells with 2.5 μg/ml LDL was determined as 2.5 fold.

(Values after article PMC4408062.)
